Measured values published in paper PMC8998802.

Biological target: CaVβ2a residues 203 to 425, His-tagged
Assay: MST

Kd	Substance
18.3 to 93 nM	AID-CaV2.1 peptide
12 to 208 nM	AID-CaV2.2 peptide
